Several values for one entry are separate records, joined by “and”; a condition that tells them apart may be missing. Equal values may be shown once.
System: not listed separately
Experiment: Blood urea nitrogen (BUN) assay in plasma, renal biocompatibility (Example 4)
Type: in vivo, mice
Details: 100 nmol per mouse intravenously, after 24 hours, one value per mouse
Method: This example describes renal biocompatibility of peptides of this disclosure. The peptides of SEQ ID NO: 18, SEQ ID NO: 20, SEQ ID NO: 21, SEQ ID NO: 26, SEQ ID NO: 36, SEQ ID NO: 39, SEQ ID NO: 45 and SEQ ID NO: 53 were intravenously dosed into mice at 100 nmol per mouse. After 24 hours, mice were anesthesized with Ketamine-Xylazine and euthanized. Plasma and kidneys were removed as quickly as possible after euthanization. A blood urea nitrogen (BUN) assay was performed to assess renal toxicity with a commercially available kit.
The average BUN concentration in plasma for naïve mice was 25 mg/dL, with a standard error of 2 mg/dL. The average BUN concentration in plasma for peptide-dosed mice was 21, with a standard error of 1 mg/dL.

Sequence | Peptide BUN
GSGDCLPHLKRCKENNDCCSKKCKRRGANPEKRCR [SEQ ID NO: 18] | 21 mg/dL and 18 mg/dL
GSQDKCKKVYENYPVSKCQLANQCNYDCKLDKHARSGECFYDEKRNLQCICDYCEY [SEQ ID NO: 39] | 23 mg/dL and 18 mg/dL
GSQFTDVKCTGSKQCWPVCKQMFGKPNGKCMNGKCRCYS [SEQ ID NO: 26] | 19 mg/dL
GSQKILSNRCNNSSECIPHCIRIFGTRAAKCINRKCYCYP [SEQ ID NO: 20] | 29 mg/dL and 21 mg/dL
GSVFINVKCRGSPECLPKCKEAIGKSAGKCMNGKCKCYP [SEQ ID NO: 36] | 22 mg/dL and 21 mg/dL

System: MCP-1 mRNA
Experiment: Stress-induced mRNA by RT-PCR, MCP-1
Type: in vivo, mice
Details: four hours post-peptide administration
Method: (§1) At four hours post-peptide administration, potential renal injury was assessed by measuring three stress-induced mRNAs (MCP-1, NGAL, and TNFa).

Sequence | mMCP-1/GAPDH
GSQFTNVSCTTSRECWSVCQRLHNTSRGRCMNRRCRCYS [SEQ ID NO: 5] | 0.79

System: NGAL mRNA
Experiment: Stress-induced mRNA by RT-PCR, NGAL
Type: in vivo, mice
Details: four hours post-peptide administration
Method: as §1

Sequence | mNGAL/GAPDH
GSQFTNVSCTTSRECWSVCQRLHNTSRGRCMNRRCRCYS [SEQ ID NO: 5] | 1.76

System: not listed separately
Experiment: Peptide stability to a reducing agent (DTT), RP-HPLC
Type: physicochemical
Details: 10 mM DTT in PBS, room temperature, 30 minutes
Method: (§2) This example describes peptide stability in the presence of pepsin, trypsin, a reducing agent, or elevated temperature. Peptides were first suspended in 500 µl of ddH2O to a stock concentration of 2 mg/ml. […] These reactions were then quenched with 5 μg of soybean trypsin inhibitor (I) and, in some cases, 10 mM dithiothreitol (DTT). […] Temperature stability was tested by incubating peptides in non-reducing conditions at 70° C. for 1 hour. Stability was evaluated by RP-HPLC.

Sequence | Reduction
GSGDCLPHLKRCKENNDCCSKKCKRRGANPEKRCR [SEQ ID NO: 18] | Partially Resistant
GSQDKCKKVYENYPVSKCQLANQCNYDCKLDKHARSGECFYDEKRNLQCICDYCEY [SEQ ID NO: 39] | Not Resistant
GSQFTDVKCTGSKQCWPVCKQMFGKPNGKCMNGKCRCYS [SEQ ID NO: 26] | Not Resistant
GSQFTNVSCTTSRECWSVCQRLHNTSRGRCMNRRCRCYS [SEQ ID NO: 5] | Resistant
GSQKILSNRCNNSSECIPHCIRIFGTRAAKCINRKCYCYP [SEQ ID NO: 20] | Resistant
GSVFINVKCRGSPECLPKCKEAIGKSAGKCMNGKCKCYP [SEQ ID NO: 36] | Not Resistant

System: not listed separately
Experiment: Plasma BUN, assessment of renal injury (Example 14)
Type: in vivo, mice
Details: Table 3; 100 nmol iv (approximately 16 mg/kg), 24 hours post-peptide administration
Method: (§3) This example illustrates assessment of renal injury by peptides of this disclosure. Mice were injected intravenously at a dose of 100 nmol, which is approximately 16 mg/kg. PBS was administered as a negative control. At 24 hours post-peptide administration, mice were euthanized and plasma blood urea nitrogen (BUN) and plasma creatinine were measured. The blood urea nitrogen (BUN) assay was performed to assess renal toxicity with a commercially available kit. Plasma creatinine concentrations were determined using the colorimetrically corrected Jaffe reaction method. Additionally, the kidneys from these mice were removed, sectioned, and stained using periodic acid Schiff (PAS). […] Histological analysis corroborated the mRNA/protein data.

Sequence | Plasma BUN [mg/dL]
GSGDCLPHLKRCKENNDCCSKKCKRRGANPEKRCR [SEQ ID NO: 18] | 19.5
GSQDKCKKVYENYPVSKCQLANQCNYDCKLDKHARSGECFYDEKRNLQCICDYCEY [SEQ ID NO: 39] | 20.5
GSQFTDVKCTGSKQCWPVCKQMFGKPNGKCMNGKCRCYS [SEQ ID NO: 26] | 19
GSQKILSNRCNNSSECIPHCIRIFGTRAAKCINRKCYCYP [SEQ ID NO: 20] | 25
GSVFINVKCRGSPECLPKCKEAIGKSAGKCMNGKCKCYP [SEQ ID NO: 36] | 21.5

Same assay, conditions: Table 4; 100 nmol iv; time not stated for this column (mRNAs at four hours)

Sequence | Plasma BUN [mg/dL]
GSQFTNVSCTTSRECWSVCQRLHNTSRGRCMNRRCRCYS [SEQ ID NO: 5] | 23

System: not listed separately
Experiment: Whole body autoradiography of 14C labeled peptides, renal cortex and blood
Type: in vivo, mice
Details: renal cortex vs blood from the ventricle, 100 nmol iv, 3 hours
Excerpt: This example describes radiolabeling of peptides of this disclosure. Several knotted peptides were radiolabeled by reductive methylation with ^14C formaldehyde and sodium cyanoborohydride with standard techniques. The sequences were engineered to have the amino acids, “G” and “S” at the N terminus. See Methods in Enzymology V91:1983 p. 570 and JBC 254(11):1979 p. 4359. An excess of formaldehyde was used to ensure complete methylation (dimethylation of every free amine). The labeled peptides were isolated via solid-phase extraction on Strata-X columns (Phenomenex 8B-S100-AAK), rinsed with water with 5% methanol, and recovered in methanol with 2% formic acid. Solvent was subsequently removed in a blowdown evaporator with gentle heat and a stream of nitrogen gas. The final product was verified and characterized by high performance liquid chromatography (HPLC).
This example illustrates accumulation of peptides of the present disclosure in kidneys measured by whole body autoradiography. Peptides of the present disclosure were radiolabeled as described in EXAMPLE 2. 100 nmol of ^14C labeled peptides were administered intravenously in mice. Radiolabeled peptide signal was quantified in the renal cortex and blood from the ventricle in 2-3 sections per mouse in 2 mice total. Whole body autoradiography analysis was performed with AIDA.
SEQ ID NO: 55 and SEQ ID NO: 119 ([…]), a linearized version of SEQ ID NO: 55, were radiolabeled with ^14C as described in EXAMPLE 2 and administered intravenously in mice at a dose of 100 nmol. Radiolabeled peptide signal was quantified in the renal cortex and blood from the ventricle in 2-3 sections per mouse in 2 mice total. Whole body autoradiography analysis was performed with AIDA.

Sequence | Signal ratio Kidney:Blood (3 hours)
GSQFTNVSCTTSRECWSVCQRLHNTSRGRCMNRRCRCYS [SEQ ID NO: 5] | 27.2

Same assay, conditions: renal cortex vs blood from the ventricle, 100 nmol iv, 24 hours

Sequence | Signal ratio Kidney:Blood (24 hours)
GSQFTNVSCTTSRECWSVCQRLHNTSRGRCMNRRCRCYS [SEQ ID NO: 5] | 6.4

Same assay, conditions: renal cortex, 100 nmol 14C labeled peptide iv, 3 hours

Sequence | Pixel density-Bkg/area (3 hours)
GSQFTNVSCTTSRECWSVCQRLHNTSRGRCMNRRCRCYS [SEQ ID NO: 5] | 1.40E+07

Same assay, conditions: renal cortex, 100 nmol 14C labeled peptide iv, 24 hours

Sequence | Pixel density-Bkg/area (24 hours)
GSQFTNVSCTTSRECWSVCQRLHNTSRGRCMNRRCRCYS [SEQ ID NO: 5] | 1.81E+06

System: HO-1 mRNA
Experiment: mRNA by RT-PCR, HO-1
Type: in vivo, mice
Details: four hours post-peptide administration

Sequence | mHO-1/GAPDH
GSQFTNVSCTTSRECWSVCQRLHNTSRGRCMNRRCRCYS [SEQ ID NO: 5] | 0.62

System: trypsin
Experiment: Peptide stability in the presence of trypsin, RP-HPLC
Type: in vitro ADME
Details: 5 μg trypsin, pH 7.0, 30 minutes at 37.5° C.
Method: as §2

Sequence | Trypsin
GSGDCLPHLKRCKENNDCCSKKCKRRGANPEKRCR [SEQ ID NO: 18] | Partially Resistant
GSQDKCKKVYENYPVSKCQLANQCNYDCKLDKHARSGECFYDEKRNLQCICDYCEY [SEQ ID NO: 39] | Partially Resistant
GSQFTDVKCTGSKQCWPVCKQMFGKPNGKCMNGKCRCYS [SEQ ID NO: 26] | Partially Resistant
GSQFTNVSCTTSRECWSVCQRLHNTSRGRCMNRRCRCYS [SEQ ID NO: 5] | Resistant
GSQKILSNRCNNSSECIPHCIRIFGTRAAKCINRKCYCYP [SEQ ID NO: 20] | Partially Resistant
GSVFINVKCRGSPECLPKCKEAIGKSAGKCMNGKCKCYP [SEQ ID NO: 36] | Not Resistant

System: not listed separately
Experiment: Plasma creatinine, Jaffe reaction method (Example 14)
Type: in vivo, mice
Details: Table 3; 100 nmol iv, 24 hours post-peptide administration
Method: as §3

Sequence | Plasma Creatinine [mg/dL]
GSGDCLPHLKRCKENNDCCSKKCKRRGANPEKRCR [SEQ ID NO: 18] | 0.43
GSQDKCKKVYENYPVSKCQLANQCNYDCKLDKHARSGECFYDEKRNLQCICDYCEY [SEQ ID NO: 39] | 0.32
GSQFTDVKCTGSKQCWPVCKQMFGKPNGKCMNGKCRCYS [SEQ ID NO: 26] | 0.33
GSQKILSNRCNNSSECIPHCIRIFGTRAAKCINRKCYCYP [SEQ ID NO: 20] | 0.5
GSVFINVKCRGSPECLPKCKEAIGKSAGKCMNGKCKCYP [SEQ ID NO: 36] | 0.4

Same assay, conditions: Table 4; 100 nmol iv; time not stated for this column (mRNAs at four hours)

Sequence | Plasma Creatinine [mg/dL]
GSQFTNVSCTTSRECWSVCQRLHNTSRGRCMNRRCRCYS [SEQ ID NO: 5] | 0.23

System: TNFa mRNA
Experiment: Stress-induced mRNA by RT-PCR, TNFa
Type: in vivo, mice
Details: four hours post-peptide administration
Method: as §1

Sequence | mTNFa/GAPDH
GSQFTNVSCTTSRECWSVCQRLHNTSRGRCMNRRCRCYS [SEQ ID NO: 5] | 2.55

System: not listed separately
Experiment: Temperature stability at 70° C., RP-HPLC
Type: physicochemical
Details: non-reducing conditions, 70° C. for 1 hour
Method: as §2

Sequence | Temperature (70° C.)
GSVFINVKCRGSPECLPKCKEAIGKSAGKCMNGKCKCYP [SEQ ID NO: 36] | Resistant

System: pepsin
Experiment: Peptide stability in the presence of pepsin, RP-HPLC
Type: in vitro ADME
Details: 20 μg pepsin, pH 1.05, 30 minutes at 37.5° C.
Method: as §2

Sequence | Pepsin
GSQFTNVSCTTSRECWSVCQRLHNTSRGRCMNRRCRCYS [SEQ ID NO: 5] | Resistant
GSVFINVKCRGSPECLPKCKEAIGKSAGKCMNGKCKCYP [SEQ ID NO: 36] | Resistant

System: not listed separately
Experiment: Kidney histology, periodic acid Schiff (PAS) stain
Type: in vivo, mice
Details: 24 hours after intravenous administration of 100 nmol
Method: as §3

Sequence | renal physiology (PAS histology, FIG. 24)
GSGDCLPHLKRCKENNDCCSKKCKRRGANPEKRCR [SEQ ID NO: 18] | normal renal physiology
GSQDKCKKVYENYPVSKCQLANQCNYDCKLDKHARSGECFYDEKRNLQCICDYCEY [SEQ ID NO: 39] | normal renal physiology
GSQFTDVKCTGSKQCWPVCKQMFGKPNGKCMNGKCRCYS [SEQ ID NO: 26] | normal renal physiology
GSQKILSNRCNNSSECIPHCIRIFGTRAAKCINRKCYCYP [SEQ ID NO: 20] | normal renal physiology
GSVFINVKCRGSPECLPKCKEAIGKSAGKCMNGKCKCYP [SEQ ID NO: 36] | normal renal physiology
